Laboratory results taken from patent US7189519B2, “Bead-based detection of ligand-GPCR-G protein complexes” (STC.UNM, priority 1998, dated 2007).

B1: RGS7: regulator of G protein signaling protein (protein, UniProt P49802 1-495, looked up)
Regulator of G-protein …: MAQGNNYGQTSNGVADESPNMLVYRKMEDVIARMQDEKNGIPIRTVKSFLSKIPSVFSGSDIVQWLIKNLTIEDPVEALHLGTLMAAHGYFFPISDHVLTLKDDGTFYRFQTPYFWPSNCWEPENTDYAVYLCKRTMQNKARLELADYEAESLARLQRAFARKWEFIFMQAEAQAKVDKKRDKIERKILDSQERAFWDVHRPVPGCVNTTEVDIKKSSRMRNPHKTRKSVYGLQNDIRSHSPTHTPTPETKPPTEDELQQQIKYWQIQLDRHRLKMSKVADSLLSYTEQYLEYDPFLLPPDPSNPWLSDDTTFWELEASKEPSQQRVKRWGFGMDEALKDPVGREQFLKFLESEFSSENLRFWLAVEDLKKRPIKEVPSRVQEIWQEFLAPGAPSAINLDSKSYDKTTQNVKEPGRYTFEDAQEHIYKLMKSDSYPRFIRSSAYQELLQAKKKSGNSMDRRTSFEKFAQNVGRNIPIFPCHKNCTPTLRASTNLL
B2: RGS4: regulator of G protein signaling protein (protein, UniProt P49798 1-205, looked up)
Regulator of G-protein …: MCKGLAGLPASCLRSAKDMKHRLGFLLQKSDSCEHNSSHNKKDKVVICQRVSQEEVKKWAESLENLISHECGLAAFKAFLKSEYSEENIDFWISCEEYKKIKSPSKLSPKAKKIYNEFISVQATKEVNLDSCTREETSRNMLEPTITCFDEAQKKIFNLMEKDSYRRFLKSRFYLDLVNPSSCGAEKQKGAKSSADCASLVPQCA
B3: RGS8: regulator of G protein signaling protein (protein, UniProt P57771 1-180, looked up)
Regulator of G-protein …: MAALLMPRRNKGMRTRLGCLSHKSDSCSDFTAILPDKPNRALKRLSTEEATRWADSFDVLLSHKYGVAAFRAFLKTEFSEENLEFWLACEEFKKTRSTAKLVSKAHRIFEEFVDVQAPREVNIDFQTREATRKNLQEPSLTCFDQAQGKVHSLMEKDSYPRFLRSKMYLDLLSQSQRRLS
B4: RGS2: regulator of G protein signaling protein (protein, UniProt P41220 1-211, looked up)
Regulator of G-protein …: MQSAMFLAVQHDCRPMDKSAGSGHKSEEKREKMKRTLLKDWKTRLSYFLQNSSTPGKPKTGKKSKQQAFIKPSPEEAQLWSEAFDELLASKYGLAAFRAFLKSEFCEENIEFWLACEDFKKTKSPQKLSSKARKIYTDFIEKEAPKEINIDFQTKTLIAQNIQEATSGCFTTAQKRVYSLMENNSYPRFLESEFYQDLCKKPQITTEPHAT

These molecules were tested against T1, FPR-αi2 (R-α) fusion protein (UniProt P04897+P21462) (assay: RGS activity assay on beads (FPR-αi2, fluorescent ligand, GTP, Gβγ beads)).
T1 construct: expressed in transfected cells; U937 stated only for FPR
Assay type: biochemical
Procedure: FPR-αi2 (R-α) was used in the standard assembly assay with fluorescent ligand (see FIG. 3, complex C), and with the amounts of GTP and RGS shown in FIG. 7, using beads coated with Gβγ. Bead fluorescence was measured as previously described.
Standard LRG Assembly Assay. The standard 10 μl assay consisted of 2 μl of water or 10^−4M GTPγS, 6 μl of soluble receptor preparation with or without ligand, and 2 μl of beads prepared as above, with 0.7 pmol G protein used per assay, and an unknown fraction left on the beads in the proper orientation. For FPR and R-αi2 assemblies, L^F (fMLFK-FITC) was added in excess of receptor to ensure that essentially all the receptor was bound. For FPR-GFP assembly, 10^−6 M L (fMLFFGGK) was added to the receptor preparation to ensure that essentially all the receptor was bound. Each mixture was mixed by pipetting to ensure a uniform starting suspension of the beads in 96 V-well plates (Costar), and then mixed at low speed on a vortex mixer at 7° for two hours. The 10 μl assays were individually brought to 200 μl with 0.1% dodecyl maltoside in buffer A in 12×75 mm tubes for flow cytometric measurement of fluorescence of the beads. LRG assembly was defined as the difference between fluorescence without GTPγS and that with GTPγS. All determinations were done in duplicate.
RGS Activity Affects LR-αG Assemblies on Beads. As a second mechanistic problem, the role of GTP and RGS activity in regulating the assembly of βγ subunits with the receptor-Giα fusion protein was examined (FIG. 7; see also FIGS. 3, complex C and FIG. 4B). […] The data were consistent with the idea that RGS, by enhancing the cleavage of GTP, affected the GTP dose-response for the formation of the bead-based complex. The shift in the dose-response was consistent with the consumption of 10 μM or more GTP in 10 μl over 2 hours in the presence of R-α, RGS, and L. Calculating that 24 nM R-α (the total added) consumed 10 μM GTP equally in the first half hour, leaving 60 minutes for assembly on the bead, the turnover number was ˜14 min^−1 for the receptor-Giα fusion protein at 7° C.; if rates double for every 10° C. increase, this would imply about 110 min^−1 at 37° C. Calculating consumption over the entire time yields ˜5 and 40 min^−1, respectively.
The nucleotide sensitivity of the assembly of R-αi2 with βγ allowed the activity and specificity of RGS to be examined. […] This assembly format therefore has the potential for discriminating RGS antagonists. Elsewhere it is described how GTP increases access of soluble assemblies of R-αi2 to anti-αi2 antibody, consistent with the idea of Ay binding and release (Shi M, et al., submitted).

T1 sequence (P21462+P04897 fused): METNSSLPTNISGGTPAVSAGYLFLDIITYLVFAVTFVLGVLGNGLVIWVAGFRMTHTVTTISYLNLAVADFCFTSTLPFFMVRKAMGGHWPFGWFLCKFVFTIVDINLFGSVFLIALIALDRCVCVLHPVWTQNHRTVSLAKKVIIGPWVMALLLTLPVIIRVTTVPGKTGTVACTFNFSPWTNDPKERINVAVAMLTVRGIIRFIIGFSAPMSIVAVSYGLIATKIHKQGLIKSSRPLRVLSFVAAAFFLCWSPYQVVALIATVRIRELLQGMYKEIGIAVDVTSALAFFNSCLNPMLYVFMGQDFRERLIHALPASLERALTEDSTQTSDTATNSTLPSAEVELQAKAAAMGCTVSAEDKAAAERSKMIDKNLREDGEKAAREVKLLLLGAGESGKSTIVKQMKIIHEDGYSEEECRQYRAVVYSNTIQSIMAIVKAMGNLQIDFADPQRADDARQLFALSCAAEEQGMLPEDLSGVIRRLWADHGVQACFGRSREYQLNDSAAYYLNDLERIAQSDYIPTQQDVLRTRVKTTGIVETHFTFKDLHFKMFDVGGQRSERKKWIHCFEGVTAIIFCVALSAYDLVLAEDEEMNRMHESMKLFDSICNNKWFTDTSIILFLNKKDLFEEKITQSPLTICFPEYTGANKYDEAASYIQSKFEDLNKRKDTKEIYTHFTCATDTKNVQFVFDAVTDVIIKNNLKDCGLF

| GTP consumption in the presence of LR-α | Molecule |
| --- | --- |
| appeared to consume GTP | B1 |
| appeared to consume GTP | B2 |
| appeared to consume GTP | B3 |
| did not | B4 |
